Assay results from the supplement of paper PMC7125110.
± gives the standard error. For some of these results: This sample holds only a part of the variants without activity.

B1: glmS ribozyme (parent)
chain: AUAAAAGCGCCAGAACUACAGAAAUGUAGUUGACGAGGAGGAGGUUUAUCGAAUUUUCGGCGGAUGCCUCCAAA

Legend:
Details in all cases: with glucosamine-6-phosphate
glucosamine-6-phosphate [1] = variants of: B1; assay: kcat; higher = faster cleavage; RNA array
Method in brief: (§1)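 Ribozyme variants carrying barcodes were transcribed in situ on sequenced MiSeq chips by E. coli RNA polymerase and tracked at 37 °C with a hybridised Cy3 probe. They were exposed to 40 μM to 10 mM glucosamine-6-phosphate in HEPES/KCl/Mg(OAc)2 buffer. kobs came from exponential decay fits of normalised per-tile medians, and kcat and KM from weighted Michaelis–Menten fits.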

glucosamine-6-phosphate [2] = variants of: B1; assay: KM; higher = weaker cofactor use; RNA array
Method in brief: as §1

glucosamine-6-phosphate [3] = variants of: B1; assay: self-cleavage kobs at 640 uM GlcN6P; higher = faster cleavage; RNA array
Method in brief: as §1

glucosamine-6-phosphate [4] = variants of: B1; assay: self-cleavage kobs at 2500 uM GlcN6P; higher = faster cleavage; RNA array
Method in brief: as §1

glucosamine-6-phosphate [5] = variants of: B1; assay: self-cleavage kobs at 10000 uM GlcN6P; higher = faster cleavage; RNA array
Method in brief: as §1

glucosamine-6-phosphate [6] = variants of: B1; assay: self-cleavage kobs at 40 uM GlcN6P; higher = faster cleavage; RNA array
Method in brief: as §1

glucosamine-6-phosphate [7] = variants of: B1; assay: self-cleavage kobs at 160 uM GlcN6P; higher = faster cleavage; RNA array
Method in brief: as §1

With A39U G43A the kcat (glucosamine-6-phosphate [1]) was 0.000177 ± 1.5e-05 s⁻¹, the KM (glucosamine-6-phosphate [2]) was 1170 ± 280 µM and the “self-cleavage kobs at 640 uM GlcN6P” value (glucosamine-6-phosphate [3]) was 5.75e-05 ± 8.5e-06 s⁻¹. For the same variant, the “self-cleavage kobs at 2500 uM GlcN6P” value (glucosamine-6-phosphate [4]) was 0.000139 ± 1.6e-05 s⁻¹ and the “self-cleavage kobs at 10000 uM GlcN6P” value (glucosamine-6-phosphate [5]) was 0.000152 ± 1.4e-05 s⁻¹.

For C16U U54C U69C, the kcat (glucosamine-6-phosphate [1]) was 0.0043 ± 0.0021 s⁻¹, the “self-cleavage kobs at 40 uM GlcN6P” value (glucosamine-6-phosphate [6]) was 0.000216 ± 7.7e-05 s⁻¹ and the “self-cleavage kobs at 640 uM GlcN6P” value (glucosamine-6-phosphate [3]) was 0.000965 ± 0.00017 s⁻¹. The “self-cleavage kobs at 2500 uM GlcN6P” value (glucosamine-6-phosphate [4]) was 0.00258 ± 0.00059 s⁻¹ and the “self-cleavage kobs at 10000 uM GlcN6P” value (glucosamine-6-phosphate [5]) was 0.00361 ± 0.0013 s⁻¹.

With C8A A48G the kcat (glucosamine-6-phosphate [1]) was under 1e-05 s⁻¹, the “self-cleavage kobs at 160 uM GlcN6P” value (glucosamine-6-phosphate [7]) was under 1e-05 s⁻¹ and the “self-cleavage kobs at 2500 uM GlcN6P” value (glucosamine-6-phosphate [4]) was under 1e-05 s⁻¹. The “self-cleavage kobs at 10000 uM GlcN6P” value (glucosamine-6-phosphate [5]) was under 1e-05 s⁻¹.

In the case of A33G A64G, the kcat (glucosamine-6-phosphate [1]) is reported as under 1e-05 s⁻¹, the KM (glucosamine-6-phosphate [2]) is reported as 484 ± 28 µM and the “self-cleavage kobs at 40 uM GlcN6P” value (glucosamine-6-phosphate [6]) is reported as under 1e-05 s⁻¹. The “self-cleavage kobs at 10000 uM GlcN6P” value (glucosamine-6-phosphate [5]) was under 1e-05 s⁻¹.

With G13C A42C the kcat (glucosamine-6-phosphate [1]) was under 1e-05 s⁻¹, the “self-cleavage kobs at 40 uM GlcN6P” value (glucosamine-6-phosphate [6]) was under 1e-05 s⁻¹ and the “self-cleavage kobs at 10000 uM GlcN6P” value (glucosamine-6-phosphate [5]) was under 1e-05 s⁻¹.

For A14G C16A, the kcat (glucosamine-6-phosphate [1]) was 0.00509 ± 0.0016 s⁻¹, the KM (glucosamine-6-phosphate [2]) was 847 ± 380 µM and the “self-cleavage kobs at 40 uM GlcN6P” value (glucosamine-6-phosphate [6]) was 0.000249 ± 4.2e-05 s⁻¹. The “self-cleavage kobs at 160 uM GlcN6P” value (glucosamine-6-phosphate [7]) was 0.000745 ± 0.00023 s⁻¹, the “self-cleavage kobs at 640 uM GlcN6P” value (glucosamine-6-phosphate [3]) was 0.0021 ± 0.00042 s⁻¹ and the “self-cleavage kobs at 2500 uM GlcN6P” value (glucosamine-6-phosphate [4]) was 0.00276 ± 0.00082 s⁻¹. The “self-cleavage kobs at 10000 uM GlcN6P” value (glucosamine-6-phosphate [5]) was 0.00789 ± 0.0017 s⁻¹.

With A53U A64U the kcat (glucosamine-6-phosphate [1]) was 6.7e-05 ± 2e-06 s⁻¹, the KM (glucosamine-6-phosphate [2]) was 1330 ± 190 µM and the “self-cleavage kobs at 40 uM GlcN6P” value (glucosamine-6-phosphate [6]) was under 1e-05 s⁻¹. For the same variant, the “self-cleavage kobs at 2500 uM GlcN6P” value (glucosamine-6-phosphate [4]) was 4.18e-05 ± 1.2e-05 s⁻¹ and the “self-cleavage kobs at 10000 uM GlcN6P” value (glucosamine-6-phosphate [5]) was 5.95e-05 ± 7.3e-06 s⁻¹.

With A15U U57C the kcat (glucosamine-6-phosphate [1]) was 8.55e-05 ± 5e-06 s⁻¹, the KM (glucosamine-6-phosphate [2]) was 4690 ± 680 µM and the “self-cleavage kobs at 160 uM GlcN6P” value (glucosamine-6-phosphate [7]) was under 1e-05 s⁻¹. For the same variant, the “self-cleavage kobs at 2500 uM GlcN6P” value (glucosamine-6-phosphate [4]) was 2.97e-05 ± 8.8e-06 s⁻¹ and the “self-cleavage kobs at 10000 uM GlcN6P” value (glucosamine-6-phosphate [5]) was 5.82e-05 ± 8.1e-06 s⁻¹.

In the case of A42G U69G, the kcat (glucosamine-6-phosphate [1]) is reported as 0.000182 ± 2.9e-05 s⁻¹, the “self-cleavage kobs at 40 uM GlcN6P” value (glucosamine-6-phosphate [6]) is reported as 5.35e-05 ± 2.1e-05 s⁻¹ and the “self-cleavage kobs at 640 uM GlcN6P” value (glucosamine-6-phosphate [3]) is reported as 0.000119 ± 4.1e-05 s⁻¹. The “self-cleavage kobs at 10000 uM GlcN6P” value (glucosamine-6-phosphate [5]) was 0.000202 ± 4.3e-05 s⁻¹.

For G66C C71U, the kcat (glucosamine-6-phosphate [1]) was 0.000716 ± 9.4e-05 s⁻¹, the KM (glucosamine-6-phosphate [2]) was 975 ± 220 µM and the “self-cleavage kobs at 160 uM GlcN6P” value (glucosamine-6-phosphate [7]) was 9.54e-05 ± 1.7e-05 s⁻¹. For the same variant, the “self-cleavage kobs at 640 uM GlcN6P” value (glucosamine-6-phosphate [3]) was 0.000335 ± 5e-05 s⁻¹, the “self-cleavage kobs at 2500 uM GlcN6P” value (glucosamine-6-phosphate [4]) was 0.000494 ± 9.6e-05 s⁻¹ and the “self-cleavage kobs at 10000 uM GlcN6P” value (glucosamine-6-phosphate [5]) was 0.000631 ± 0.00011 s⁻¹.

With G13U C71U the kcat (glucosamine-6-phosphate [1]) was 0.00114 ± 0.00015 s⁻¹, the KM (glucosamine-6-phosphate [2]) was 2020 ± 470 µM and the “self-cleavage kobs at 40 uM GlcN6P” value (glucosamine-6-phosphate [6]) was 2.24e-05 ± 7.7e-06 s⁻¹. For the same variant, the “self-cleavage kobs at 160 uM GlcN6P” value (glucosamine-6-phosphate [7]) was 0.000105 ± 1.7e-05 s⁻¹, the “self-cleavage kobs at 640 uM GlcN6P” value (glucosamine-6-phosphate [3]) was 0.000229 ± 3.7e-05 s⁻¹ and the “self-cleavage kobs at 2500 uM GlcN6P” value (glucosamine-6-phosphate [4]) was 0.000673 ± 8.2e-05 s⁻¹. The “self-cleavage kobs at 10000 uM GlcN6P” value (glucosamine-6-phosphate [5]) was 0.000946 ± 9.8e-05 s⁻¹.

With G60C G66A the kcat (glucosamine-6-phosphate [1]) was under 1e-05 s⁻¹ and the “self-cleavage kobs at 640 uM GlcN6P” value (glucosamine-6-phosphate [3]) was under 1e-05 s⁻¹.

A48U C68U was tested, and the kcat (glucosamine-6-phosphate [1]) was 7.9e-05 ± 4.9e-06 s⁻¹, the KM (glucosamine-6-phosphate [2]) was 435 ± 140 µM and the “self-cleavage kobs at 640 uM GlcN6P” value (glucosamine-6-phosphate [3]) was 4.57e-05 ± 6.9e-06 s⁻¹. The “self-cleavage kobs at 2500 uM GlcN6P” value (glucosamine-6-phosphate [4]) was 7.48e-05 ± 7.7e-06 s⁻¹ and the “self-cleavage kobs at 10000 uM GlcN6P” value (glucosamine-6-phosphate [5]) was 7.25e-05 ± 6.1e-06 s⁻¹.

A6C was tested, and the kcat (glucosamine-6-phosphate [1]) was 0.000141 ± 4.6e-06 s⁻¹, the KM (glucosamine-6-phosphate [2]) was 2100 ± 180 µM and the “self-cleavage kobs at 160 uM GlcN6P” value (glucosamine-6-phosphate [7]) was under 1e-05 s⁻¹. For the same variant, the “self-cleavage kobs at 640 uM GlcN6P” value (glucosamine-6-phosphate [3]) was 3.13e-05 ± 1.1e-06 s⁻¹, the “self-cleavage kobs at 2500 uM GlcN6P” value (glucosamine-6-phosphate [4]) was 7.95e-05 ± 1.5e-06 s⁻¹ and the “self-cleavage kobs at 10000 uM GlcN6P” value (glucosamine-6-phosphate [5]) was 0.000115 ± 1.8e-06 s⁻¹.

For U55A U65C C67A, the kcat (glucosamine-6-phosphate [1]) was 0.000108 ± 1.2e-05 s⁻¹, the “self-cleavage kobs at 640 uM GlcN6P” value (glucosamine-6-phosphate [3]) was 8.44e-05 ± 2.9e-05 s⁻¹ and the “self-cleavage kobs at 2500 uM GlcN6P” value (glucosamine-6-phosphate [4]) was 8.42e-05 ± 2.6e-05 s⁻¹. For the same variant, the “self-cleavage kobs at 10000 uM GlcN6P” value (glucosamine-6-phosphate [5]) was 0.000114 ± 2.4e-05 s⁻¹.

In the case of U55C U69C, the kcat (glucosamine-6-phosphate [1]) is reported as 0.00119 ± 0.00046 s⁻¹, the “self-cleavage kobs at 640 uM GlcN6P” value (glucosamine-6-phosphate [3]) is reported as 6.77e-05 ± 2.8e-05 s⁻¹ and the “self-cleavage kobs at 2500 uM GlcN6P” value (glucosamine-6-phosphate [4]) is reported as 0.000177 ± 2.6e-05 s⁻¹. For the same variant, the “self-cleavage kobs at 10000 uM GlcN6P” value (glucosamine-6-phosphate [5]) was 0.000523 ± 0.00012 s⁻¹.
